Data on two molecules can be found in patent publication US20220040304A1, “A COMPOSITION FOR CANCER CELL DEATH AND ITS USE” (Industry-University Cooperation Foundation Hanyang …, priority 2018, published 2022).

Series [1] can be described thus: Stability of bioluminescence intensity in PBS or normal mouse serum. The following applies: buffer (1×PBS) or normal mouse serum, 37° C., protein 10 μM, Co-h 150 μM.
Description: Bioluminescence assay was performed by reaction of 30 μL of buffer (1×PBS) containing the purified protein RLuc8.6 or RLuc8.6-KR-LP protein, or RLuc8 or RLuc8-MS-LP protein (final concentration: 10 μM) and 0.8 μL of a Co-h substrate solution (final concentration: 150 μM) in an incubator (37° C.). 30 μL of normal mouse serum (Jackson ImmunoResearch, USA) containing the purified protein (final concentration: 10 μM) and 0.8 μL of a Co-h substrate solution (final concentration: 150 μM) were reacted in an incubator (37° C.). Bioluminescence intensity was immediately measured using GLOMAX.
Series [2] is described as follows: Bioluminescence assay of purified proteins with Co-h substrate (BRET). It is filed as physicochemical. The following applies: protein 1 μM, Co-h 50 μM, 1×PBS. The method, then: In addition, 100 μL of buffer (1×PBS) containing the protein purified in Example 1 (final concentration: 1 μM) was dispensed into a 96-well plate (SPL Cell Culture Plate, 96 well (SPL, Cat #30196)), and bioluminescence assay was then performed using 50 μL of buffer (1×PBS) containing a Co-h substrate solution (final concentration: 50 μM), which is a wild-type 2-deoxy derivative. Bioluminescence intensity was immediately measured at a wavelength of 300 to 800 nm using a Thermo Scientific™ Varioskan™ Flash Multimode Reader.
(In general: BRET reads energy transfer from a luciferase to a nearby fluorophore.)

Residue numbers refer to the chain shown, from its start.

B1: RLuc8.6: third protein, mutant Renilla luciferase 8.6 providing light, 38 kDa (protein)
chain: MASKVYDPEQRKRMITGPQWWARCKQMNVLDSFINYYDSEKHAENAVIFLHGNATSSYLWRHVVPHIEPVARCIIPDLIGMGKSGKSGNGSYRLLDHYKYLTAWFELLNLPKKIIFVGHDWGSALAFHYAYEHQDRIKAIVHMESVVDVIESWMGWPDIEEELALIKSEEGEKMVLENNFFVETLLPSKIMRKLEPEEFAAYLEPFKEKGEVRRPTLSWPREIPLVKGGKPDVVQIVRNYNAYLRASDDLPKLFIESDPGFFYNAIVEGAKKFPNTEFVKVKGLHFLQEDAPDEMGKYIKSFVERVLKNEQ
modifications: RLuc8.6
notes: third protein, mutant Renilla luciferase 8.6 providing light, 38 kDa
B1: the “luminescence intensity with increasing reaction time (stability)” value in series [1] is reported as “constant”. For the same molecule, the “emission in bioluminescence assay (BRET)” value in series [2] was found to be 535 nm.

B2: RLuc8: third protein, mutant Renilla luciferase 8 providing light, 38 kDa (protein)
chain: B1 chain with S123A, M154D, G155E, E162D, L163I, L185V, Y263S
modifications: RLuc8
Consider B2, for which the “emission in bioluminescence assay (BRET)” value in series [2] came to 480 nm.
